This passage reports Relative cAMP EC50, cAMP Rel EC50 (1% HSA) and cAMP Rel EC50 (in the presence of 1% HSA) results from US20240270821A1, “GIP/GLP1/GCG TRI-RECEPTOR AGONISTS AND USES THEREOF” (priority 2023, published 2024).

Substitutions are numbered along the chain they refer to.

The chains are these.
T1: human GIP receptor (human) (UniProt P48546)
T1 sequence (looked up): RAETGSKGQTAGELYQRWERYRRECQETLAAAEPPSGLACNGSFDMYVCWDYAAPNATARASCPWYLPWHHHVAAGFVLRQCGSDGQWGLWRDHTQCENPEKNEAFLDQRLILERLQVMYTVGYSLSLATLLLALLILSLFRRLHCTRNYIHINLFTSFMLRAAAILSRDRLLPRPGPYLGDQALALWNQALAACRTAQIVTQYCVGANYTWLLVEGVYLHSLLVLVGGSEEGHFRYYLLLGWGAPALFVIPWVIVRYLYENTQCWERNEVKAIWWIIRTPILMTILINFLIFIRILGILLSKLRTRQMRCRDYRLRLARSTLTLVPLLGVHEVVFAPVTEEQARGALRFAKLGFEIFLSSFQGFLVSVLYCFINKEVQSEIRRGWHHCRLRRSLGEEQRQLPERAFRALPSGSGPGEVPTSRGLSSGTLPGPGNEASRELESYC

B1: Example 1145 (peptide)
chain: YXQGTXTSDXXIXLDXKAQXEFIEXLIEGGPSSGEPPPGGE
modifications: non-natural residues; lipidated Lys AEEA-γGlu-C18 diacid; C-term amide; synthetic construct; SITE 2: note = 2-Aminoisobutyric Acid; SITE 6: note = alpha-methyl-2-fluoro-L-phenylalanine; SITE 10: note = 3-(4-Pyridyl)-L-alanine; SITE 11: note = alpha-methyl-L-serine; SITE 13: note = alpha-methyl-leucine; SITE 16: note = L-ornithine; SITE 17: note = Lysine is chemically mo
B2: Example 1147 (peptide)
chain: B1 chain with G39E, G40S
modifications: non-natural residues; K acylated AEEA-γGlu-C18 diacid; C-amide; synthetic construct; SITE 2: note = 2-Aminoisobutyric Acid; SITE 6: note = alpha-methyl-2-fluoro-L-phenylalanine; SITE 10: note = 3-(4-Pyridyl)-L-alanine; SITE 11: note = alpha-methyl-L-serine; SITE 13: note = alpha-methyl-leucine; SITE 16: note = L-ornithine; SITE 17: note = Lysine is chemically mo
B3: Example 1155 (peptide)
chain: B1 chain with I27V
modifications: not fully specified; Lys acylated AEEA-γGlu-C18 diacid; non-natural residues; C-amide; synthetic construct; SITE 2: note = 2-Aminoisobutyric Acid; SITE 6: note = alpha-methyl-2-fluoro-L-phenylalanine; SITE 10: note = 3-(4-Pyridyl)-L-alanine; SITE 11: note = alpha-methyl-L-serine; SITE 13: note = alpha-methyl-leucine; SITE 16: note = L-ornithine; SITE 17: note = Lysine is chemically mo
B4: Example 1152 (peptide)
chain: B1 chain with I27V, E35A, G39T
modifications: not fully specified; acylated lysine AEEA-γGlu-C18 diacid; non-natural residues; C-terminal amide; synthetic construct; SITE 2: note = 2-Aminoisobutyric Acid; SITE 6: note = alpha-methyl-2-fluoro-L-phenylalanine; SITE 10: note = 3-(4-Pyridyl)-L-alanine; SITE 11: note = alpha-methyl-L-serine; SITE 13: note = alpha-methyl-leucine; SITE 16: note = L-ornithine; SITE 17: note = Lysine is chemically mo
B5: Example 1156 (peptide)
chain: B1 chain with I27V, E35A, G39E, G40S
modifications: not fully specified; acylated lysine AEEA-γGlu-C18 diacid; non-natural residues; C-terminal amide; synthetic construct; SITE 2: note = 2-Aminoisobutyric Acid; SITE 6: note = alpha-methyl-2-fluoro-L-phenylalanine; SITE 10: note = 3-(4-Pyridyl)-L-alanine; SITE 11: note = alpha-methyl-L-serine; SITE 13: note = alpha-methyl-leucine; SITE 16: note = L-ornithine; SITE 17: note = Lysine is chemically mo
B6: Example 1154 (peptide)
chain: B1 chain with I27V, E35A
modifications: not fully specified; non-natural residues; AEEA-γGlu-C18 diacid acyl; C-terminal amide; synthetic construct; SITE 2: note = 2-Aminoisobutyric Acid; SITE 6: note = alpha-methyl-2-fluoro-L-phenylalanine …; SITE 10: note = 3-(4-Pyridyl)-L-alanine; SITE 11: note = alpha-methyl-L-serine; SITE 13: note = alpha-methyl-leucine; SITE 16: note = L-ornithine; SITE 17: note = Lysine is chemically mo
B7: Example 1153 (peptide)
chain: B1 chain with I27V, G39T
modifications: not fully specified; Aib, αMeF(2F), 4Pal, αMeS, Orn, Me4Pal, αMeY; acylated; amide; synthetic construct; SITE 2: note = 2-Aminoisobutyric Acid; SITE 6: note = alpha-methyl-2-fluoro-L-phenylalanine; SITE 10: note = 3-(4-Pyridyl)-L-alanine; SITE 11: note = alpha-methyl-L-serine; SITE 13: note = alpha-methyl-leucine; SITE 16: note = L-ornithine; SITE 17: note = Lysine is chemically mo
B8: Example 1151 (peptide)
chain: B1 chain with G39S
modifications: not fully specified; non-natural residues; acylated Lys; C-terminal amide; synthetic construct; SITE 2: note = 2-Aminoisobutyric Acid; SITE 6: note = alpha-methyl-2-fluoro-L-phenylalanine; SITE 10: note = 3-(4-Pyridyl)-L-alanine; SITE 11: note = alpha-methyl-L-serine; SITE 13: note = alpha-methyl-leucine; SITE 16: note = L-ornithine; SITE 17: note = Lysine is chemically mo
B9: Example 1149 (peptide)
chain: B1 chain with G39E
modifications: non-natural residues; AEEA-γGlu-C18 diacid on Lys; C-terminal amide; synthetic construct; SITE 2: note = 2-Aminoisobutyric Acid; SITE 6: note = alpha-methyl-2-fluoro-L-phenylalanine; SITE 10: note = 3-(4-Pyridyl)-L-alanine; SITE 11: note = alpha-methyl-L-serine; SITE 13: note = alpha-methyl-leucine; SITE 16: note = L-ornithine; SITE 17: note = Lysine is chemically mo
B10: Example 1133 (peptide)
chain: YXQGTFTSDXXQXLDXKAQXQFIQXLIAGGPSSGEPPPSGGGE
modifications: not fully specified; non-natural residues; C18 diacid-γGlu-e on Lys; C-terminal amide; synthetic construct; SITE 2: note = 2-Aminoisobutyric Acid; SITE 10: note = 3-(4-Pyridyl)-L-alanine; SITE 11: note = alpha-methyl-L-serine; SITE 13: note = alpha-methyl-leucine; SITE 16: note = L-ornithine; SITE 17: note = Lysine is chemically modified through conjugation of the epsilon-amino group
B11: Example 1137 (peptide)
chain: B10 chain with A28E, G29X, E35A
modifications: not fully specified; non-natural residues; γ-Glu-C18 diacid acyl; C-terminal amide; synthetic construct; SITE 2: note = 2-Aminoisobutyric Acid; SITE 10: note = 3-(4-Pyridyl)-L-alanine; SITE 11: note = alpha-methyl-L-serine; SITE 13: note = alpha-methyl-leucine; SITE 16: note = L-ornithine; SITE 17: note = Lysine is chemically modified through conjugation of the epsilon-amino group

hGLP-1R, sequence (P43220 24-463): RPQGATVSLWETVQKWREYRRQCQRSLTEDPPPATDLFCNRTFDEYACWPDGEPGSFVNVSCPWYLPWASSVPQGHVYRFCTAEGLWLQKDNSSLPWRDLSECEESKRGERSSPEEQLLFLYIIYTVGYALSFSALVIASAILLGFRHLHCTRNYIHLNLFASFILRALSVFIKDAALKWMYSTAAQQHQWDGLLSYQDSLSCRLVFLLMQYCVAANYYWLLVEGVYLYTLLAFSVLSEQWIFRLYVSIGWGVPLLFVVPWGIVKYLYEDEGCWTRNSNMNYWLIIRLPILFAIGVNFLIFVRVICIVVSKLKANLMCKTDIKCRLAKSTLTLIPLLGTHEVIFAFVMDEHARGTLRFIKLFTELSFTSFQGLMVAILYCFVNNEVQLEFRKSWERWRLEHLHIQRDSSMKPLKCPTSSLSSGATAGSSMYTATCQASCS

The first assay has as its target hGLP-1R (Homo sapiens, UniProt P43220). In words: cell-based or functional assay.
Consider B1, for which the Relative cAMP EC50 was found to be 0.313 nM and the cAMP Rel EC50 (1% HSA) worked out at 39.1 nM.
In the case of B2, the Relative cAMP EC50 was determined as 0.347 nM and the cAMP Rel EC50 (1% HSA) is 45.4 nM.
Consider B3, for which the Relative cAMP EC50 worked out at 0.434 nM and the cAMP Rel EC50 (in the presence of 1% HSA) is 44.4 nM.
The like results for B4 were, in that order, 0.371 nM and 43.8 nM.
B5: the Relative cAMP EC50 was 0.444 nM and the cAMP Rel EC50 (in the presence of 1% HSA) is 47.1 nM.
In the same order, the values of B6 are 0.344 nM and 44.5 nM.
The like results for B7 were, in that order, 0.33 nM and 52.7 nM.
With B8, the Relative cAMP EC50 is 0.262 nM and the cAMP Rel EC50 (1% HSA) was 40 nM.
Turning to B9, the Relative cAMP EC50 turned out to be 0.352 nM and the cAMP Rel EC50 (1% HSA) turned out to be 52.2 nM.
As to B10, the Relative cAMP EC50 came to 0.768 nM and the cAMP Rel EC50 (1% HSA) is 47.8 nM.
In the same order, the values of B11 are 0.582 nM and 36.2 nM.

The target in a further assay is T1, human GIP receptor (human). Nature of the assay: cell-based or functional assay.
Molecule B1 gave a Relative cAMP EC50 of 0.00689 nM and a cAMP Rel EC50 (1% HSA) of 0.848 nM.
In turn, B2 returned a Relative cAMP EC50 of 0.00753 nM and a cAMP Rel EC50 (1% HSA) of 0.831 nM.
Consider B3, for which the Relative cAMP EC50 was determined as 0.00917 nM and the cAMP Rel EC50 (in the presence of 1% HSA) was determined as 0.888 nM.
The like results for B4 were, in that order, 0.0101 nM and 1.21 nM.
As for B5, the Relative cAMP EC50 was 0.0127 nM and the cAMP Rel EC50 (in the presence of 1% HSA) stood at 1.33 nM.
For the molecule B6, the Relative cAMP EC50 stood at 0.00879 nM and the cAMP Rel EC50 (in the presence of 1% HSA) was 0.954 nM.
The like results for B7 were, in that order, 0.0109 nM and 1.39 nM.
In the case of B8, the Relative cAMP EC50 stood at 0.00339 nM and the cAMP Rel EC50 (1% HSA) is 0.287 nM.
The molecule B9 yielded a Relative cAMP EC50 of 0.00804 nM and a cAMP Rel EC50 (1% HSA) of 0.96 nM.
B10 registered a Relative cAMP EC50 of 0.0719 nM and a cAMP Rel EC50 (1% HSA) of 4.24 nM.
In turn, B11 returned a Relative cAMP EC50 of 0.0334 nM and a cAMP Rel EC50 (1% HSA) of 2.05 nM.

The next assay deals with human glucagon receptor (human) (UniProt P47871). In words: cell-based or functional assay.
human glucagon receptor (human), sequence (P47871 26-477): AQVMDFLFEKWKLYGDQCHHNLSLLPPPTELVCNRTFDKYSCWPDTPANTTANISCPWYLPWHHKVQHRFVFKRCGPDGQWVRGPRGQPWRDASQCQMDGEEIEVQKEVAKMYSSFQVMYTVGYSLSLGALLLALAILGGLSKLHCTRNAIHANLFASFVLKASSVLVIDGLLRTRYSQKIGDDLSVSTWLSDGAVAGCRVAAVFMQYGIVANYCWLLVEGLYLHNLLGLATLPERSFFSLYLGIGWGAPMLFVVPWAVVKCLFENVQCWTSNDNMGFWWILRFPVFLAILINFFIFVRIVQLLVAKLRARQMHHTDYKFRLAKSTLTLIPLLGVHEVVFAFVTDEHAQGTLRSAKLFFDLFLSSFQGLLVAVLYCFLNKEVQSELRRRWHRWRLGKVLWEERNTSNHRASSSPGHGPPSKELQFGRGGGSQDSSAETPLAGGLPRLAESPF
Turning to B1, the Relative cAMP EC50 is 1.07 nM and the cAMP Rel EC50 (1% HSA) amounted to 148 nM.
In the same order, the values of B2 are 1.17 nM and 167 nM.
Regarding B3, the Relative cAMP EC50 is 1.83 nM and the cAMP Rel EC50 (in the presence of 1% HSA) turned out to be 288 nM.
On to B4, for which the Relative cAMP EC50 was 2.32 nM and the cAMP Rel EC50 (in the presence of 1% HSA) turned out to be 287 nM.
The like results for B5 were, in that order, 2.94 nM and 337 nM.
In the same order, the values of B6 are 6.42 nM and 320 nM.
In the same order, the values of B7 are 2.69 nM and 215 nM.
Molecule B8 yielded a Relative cAMP EC50 of 1.31 nM and a cAMP Rel EC50 (1% HSA) of 206 nM.
For B9, the Relative cAMP EC50 was 1.37 nM and the cAMP Rel EC50 (1% HSA) was 184 nM.
The like results for B10 were, in that order, 2.95 nM and 216 nM.
The like results for B11 were, in that order, 14.2 nM and 663 nM.
